Measured values: patent publication US20220106398A1 (IGM BIOSCIENCES, published 2022)
Numbering of substitutions follows the chain as printed.

Legend:
Experiment in all cases: ELISA, scFv periplasmic extract on coated His6-GITR
[1] = target: T1, human His6-GITR (human, UniProt Q9Y5U5 26-162)
T1 construct: His6-tagged recombinant protein; also called hGITR-His; human GITR-His
T1 sequence: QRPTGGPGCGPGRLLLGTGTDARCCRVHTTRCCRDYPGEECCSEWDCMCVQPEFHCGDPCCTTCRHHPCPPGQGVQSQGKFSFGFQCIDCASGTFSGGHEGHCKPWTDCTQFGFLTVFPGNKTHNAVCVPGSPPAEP
Description: (§1) The SuperHuman-2.0 scFv Antibody Library (available from Distributed Bio, South San Francisco, Calif.) was used to perform selection with human, cynomolgus or mouse GITR proteins. Selected phage clones from overnight growth were inoculated into wells in 96 well deep well plates containing 1 mL of medium. scFv expression was induced by addition of IPTG (Teknova) to a final concentration of 1 mM. Plates were grown overnight after induction. To prepare periplasmic extracts (PPE), the plates containing the phage clones were centrifuged at 2500 rpm for 10 min, the supernatant discarded and then pellets treated with 75 μL of cold periplasmic extract buffer with appropriate concentration of protease inhibitors (Complete Mini, EDTA-free -Roche Applied Biosciences—Cat No 1836170). After shaking at room temperature for 10 min, 225 μL of cold ddH2O with added protease inhibitor (1 tablet/50 mL) was added per well and mixed by pipetting up and down. PPE extraction was completed by incubation at room temperature for an additional 1 hr. The plates were then centrifuged at 4000 rpm for 20 minutes and 200 μL of PPE supernatant was collected from each well and transferred to a new plate which was then blocked with equal volume of 4% milk (2% final) to prepare blocked PPE extracts. In the meantime, Maxisorp plates (Nunc 442404) coated with relevant antigen (human, mouse or cynomolgus monkey His6-GITR) at 50 μl/well of 1 μg/mL antigen or 2% BSA in PBS as control were prepared for ELISA analyses. Next, 50 μL of each blocked PPE extract was transferred to the pre-blocked ELISA plates coated with the relevant antigens. After incubation and washing 3× with PBS, 50 μL of anti-V5 tag antibody (tag included in the phage display constructs, Invitrogen Cat No R960-25) at 1:5000 dilution in 2% milk was added and the plates were incubated for 1 hr. […] After further washing 3× with PBST, 50 μl/well of TMB substrate was added and the plates were developed until positive controls were visible. The reaction was stopped with 50 μl/well of 2N H2SO4. Plates were read at 450 nm to determine ELISA signal from bound PPE derived scFv.

[2] = target: T2, cynomolgus monkey His6-GITR (cynomolgus monkey)
T2 construct: His6-tagged recombinant protein; also called cGITR-His; cyno GITR-His
T2 chain: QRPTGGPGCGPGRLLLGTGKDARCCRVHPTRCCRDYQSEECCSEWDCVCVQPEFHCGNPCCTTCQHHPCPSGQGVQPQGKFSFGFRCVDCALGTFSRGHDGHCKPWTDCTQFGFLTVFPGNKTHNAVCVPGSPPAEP
Description: as §1

[3] = target: T3, mouse His6-GITR (mouse, UniProt O35714 20-153)
T3 construct: His6-tagged recombinant protein; also called mGITR-His; mouse GITR-His
T3 sequence: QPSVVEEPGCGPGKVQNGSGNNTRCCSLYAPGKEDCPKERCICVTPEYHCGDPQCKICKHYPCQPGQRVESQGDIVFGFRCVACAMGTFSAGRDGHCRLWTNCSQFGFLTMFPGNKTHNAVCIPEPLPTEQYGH
Description: as §1

B1: GITR-Mab-1 scFv (scFv, V domains shown)
VH: QVQLVQSGAEVKKPGASVKVSCKASGYTFTNYHLHWVRQAPGQGLEWMGMINPNDGSTTYAQKFQGRVTMTRDTSTSTVYMELSSLRSEDTAVYYCARSTYYYDSSGYYYYYYGMDVWGQGTTVTVSS
VL: EIVMTQSPATLSVSPGERATLSCRASQSVYSNYLAWYQQKPGQAPRLLIYGASTRATGIPARFSGSGSGTEFTLTISSLQSEDFAVYYCQQYHSYPLTFGGGTKVEIK
notes: scFv in periplasmic extract, V5 tag
B1 gave a hGITR-His/BKG [1] of 13.2 fold over background, a cGITR-His/BKG [2] of 15.8 fold over background and a mGITR-His/BKG [3] of 1.1 fold over background.

B2: GITR-Mab-28 scFv (scFv, V domains shown)
VH: QVQLVQSGAEVKKPGASVKVSCKASGYTFPNYGITWVRQAPGQGLEWMGWMNPNSGYTGYAQNFQGRVTMTRDTSTSTVYMELSSLRSEDTAVYYCARGMPGRGFDPWGQGTLVTVSS
VL: B1 VL with Y30S, S94T, L97P, G101Q, V105L
notes: as for B1
With B2 the hGITR-His/BKG [1] was 11.5 fold over background, the cGITR-His/BKG [2] was 1 fold over background and the mGITR-His/BKG [3] was 1 fold over background.

B3: GITR-Mab-31 scFv (scFv, V domains shown)
VH: QVQLVQSGAEVKKPGSSVKVSCKASGGTFSSYAISWVRQAPGQGLEWMGGIIPISSATSIPQKFQGRVTITADESTSTAYMELSSLRSEDTAVYYCARSYDSRYYGMDVWGQGTTVTVSS
VL: B1 VL with S28T, Y30G, N32R, H93Y, Y95T, L97W, G101Q, K104R, V105L
notes: as for B1
B3 showed a hGITR-His/BKG [1] of 17.7 fold over background, a cGITR-His/BKG [2] of 1.2 fold over background and a mGITR-His/BKG [3] of 1.2 fold over background.

B4: GITR-Mab-36 scFv (scFv, V domains shown)
VH: QVQLVQSGAEVKKPGASVKVSCKASGYTFTRNYIHWVRQAPGQGLEWMGWINPKSGGTKYAQKFQGRVTMTRDTSTSTVYMELSSLRSEDTAVYYCARESGVVATEYWYFDLWGRGTLVTVSS
VL: not shown
notes: as for B1
Work on B4 yielded a hGITR-His/BKG [1] of 8.8 fold over background, a cGITR-His/BKG [2] of 1.4 fold over background and a mGITR-His/BKG [3] of 0.9 fold over background.

B5: GITR-Mab-45 scFv (scFv, V domains shown)
VH: QVQLVQSGAEVKKPGASVKVSCKASGYTFTSYGISWVRQAPGQGLEWMGWMNPNSGNTGYAQKFQGRVTMTRDTSTSTVYMELSSLRSEDTAVYYCAREVYGDLDYWGQGTLVTVSS
VL: DIQMTQSPSSLSASVGDRVTITCRASQGIDNWLAWYQQKPGKAPKLLIYGASTLQSGVPSRFSGSGSGTDFTLTISSLQPEDFATYYCQQSYTARFTFGPGTKVDIK
notes: as for B1
Binder B5 has a hGITR-His/BKG [1] of 1.4 fold over background and a mGITR-His/BKG [3] of 4.5 fold over background.

B6: GITR-Mab-34 scFv (scFv, V domains shown)
VH: EVQLLESGGGLVQPGGSLRLSCAASGFTFSSYWMHWVRQAPGKGLEWVSVISNSGGATYYADSVKGRFTISRDNSKNTLYLQMNSLRAEDTAVYYCAREGWGYGMDVWGQGTTVTVSS
VL: DIQMTQSPSSLSASVGDRVTITCRASQDIRNYLAWYQQKPGKAPKLLIYTASTLQSGVPSRFSGSGSGTDFTLTISSLQPEDFATYYCQQTFRTPLTFGGGTKVEIK
notes: as for B1
In the case of B6, the hGITR-His/BKG [1] is reported as 7.7 fold over background, the cGITR-His/BKG [2] is reported as 1.1 fold over background and the mGITR-His/BKG [3] is reported as 1.2 fold over background.

B7: GITR-Mab-30 scFv (scFv, V domains shown)
VH: QVQLVQSGAEVKKPGASVKVSCKASGGTFSSYAISWVRQAPGQGLEWMGIIDPTGGATAYAQEFQGRVTMTRDTSTSTVYMELSSLRSEDTAVYYCARVGYYYGMDVWGQGTMVTVSS
VL: not shown
notes: as for B1
In the case of B7, the hGITR-His/BKG [1] is reported as 18.7 fold over background, the cGITR-His/BKG [2] is reported as 1 fold over background and the mGITR-His/BKG [3] is reported as 1 fold over background.

B8: GITR-Mab-33 scFv (scFv, V domains shown)
VH: EVQLLESGGGLVKPGGSLRLSCAASGFMFSSYSMNWVRQAPGKGLEWVSYISGNSGYTNYADSVKGRFTISRDDSKNTLYLQMNSLKTEDTAVYYCARRLHGMDVWGQGTTVTVSS
VL: DIQMTQSPSSLSASVGDRVTITCRASQSISTWLAWYQQKPGKAPKLLIYDASNLETGVPSRFSGSGSGTDFTLTISSLQPEDFATYYCQQAYRFPVAFGGGTKVEIK
notes: as for B1
B8 showed a hGITR-His/BKG [1] of 17.7 fold over background, a cGITR-His/BKG [2] of 1.3 fold over background and a mGITR-His/BKG [3] of 1 fold over background.

B9: GITR-Mab-39 scFv (scFv, V domains shown)
VH: EVQLLESGGGLVKPGGSLRLSCAASGFTFSSYWMSWVRQAPGKGLEWVSSISWSSTYIYYADSVKGRFTISRDDSKNTLYLQMNSLKTEDTAVYYCARDGQLGHWHFDLWGRGTLVTVSS
VL: B8 VL with T31D, D50E, N53K, E55A, A91S, R93T, F94T, V96L, A97T
notes: as for B1
In the case of B9, the hGITR-His/BKG [1] is reported as 4.2 fold over background, the cGITR-His/BKG [2] is reported as 4 fold over background and the mGITR-His/BKG [3] is reported as 4.4 fold over background.

B10: GITR-Mab-32 scFv (scFv, V domains shown)
VH: QVQLVQSGAEVKKPGASVKVSCKASGGTFSSYAISWVRQAPGQGLEWMGWMNPNSGDTGYAQKFQGRVTMTRDTSTSTVYMELSSLRSEDTAVYYCARGPWYFDLWGRGTLVTVSS
VL: DIQMTQSPSSLSASVGDRVTITCRVSQGISNSLAWYQQKPGKAPKLLIYAASSLQSGVPSRFSGSGSGTDFTLTISSLQPEDFATYYCQQSYSTVYTFGQGTKLEIK
notes: as for B1
For B10, the hGITR-His/BKG [1] was 18 fold over background, the cGITR-His/BKG [2] was 4.9 fold over background and the mGITR-His/BKG [3] was 1 fold over background.

B11: GITR-Mab-38 scFv (scFv, V domains shown)
VH: QVQLVQSGAEVKKPGASVKVSCKASGGTFRNYAINWVRQAPGQGLEWMGWMNPNSGNTGYAQKFQGRVTMTRDTSTSTVYMELSSLRSEDTAVYYCAREDVDTASQAYFDYWGQGTLVTVSS
VL: B10 VL with V25A, S32Y, A50S, S53N, S91G, T94S, V95R
notes: as for B1
For B11, the hGITR-His/BKG [1] was 2.9 fold over background.

B12: GITR-Mab-37 scFv (scFv, V domains shown)
VH: QVQLVQSGAEVKKPGASVKVSCKASGYTFTSYYMHWVRQAPGQGLEWMGWINPNSGGTNYAQKFQGRVTMTRDTSTSTVYMELSSLRSEDTAVYYCASPGDYCSGGSCYSDDAFDIWGQGTMVTVSS
VL: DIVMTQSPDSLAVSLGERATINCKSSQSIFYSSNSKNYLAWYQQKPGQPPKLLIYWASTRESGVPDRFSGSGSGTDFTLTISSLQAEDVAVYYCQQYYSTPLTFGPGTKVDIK
notes: as for B1
B12 gave a hGITR-His/BKG [1] of 13.2 fold over background, a cGITR-His/BKG [2] of 11.7 fold over background and a mGITR-His/BKG [3] of 13.7 fold over background.

B13: GITR-Mab-4 scFv (scFv, V domains shown)
VH: EVQLLESGGGLVQPGGSLRLSCAASGFTFSSYDMHWVRQAPGKGLEWVSAISSSGGSIYYADSVKGRFTISRDNSKNTLYLQMNSLRAEDTAVYYCARDSVVVPKGPNRKYYYYGMDVWGQGTKVTVSS
VL: not shown
notes: as for B1
B13 was tested, and the hGITR-His/BKG [1] was 9.6 fold over background, the cGITR-His/BKG [2] was 10.3 fold over background and the mGITR-His/BKG [3] was 16.1 fold over background.

B14: GITR-Mab-29 scFv (scFv, V domains shown)
VH: QVQLVQSGAEVKKPGASVKVSCKASGYTFSSDYIHWVRQAPGQGLEWMGRINPSGGSTLYARRFQGRVTMTRDTSTSTVYMELSSLRSEDTAVYYCARERGAADTWYFDLWGRGTLVTVSS
VL: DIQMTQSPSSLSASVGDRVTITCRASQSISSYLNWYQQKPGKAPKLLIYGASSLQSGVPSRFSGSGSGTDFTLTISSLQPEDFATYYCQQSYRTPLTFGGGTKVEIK
notes: as for B1
With B14 the hGITR-His/BKG [1] was 12.4 fold over background, the cGITR-His/BKG [2] was 1.1 fold over background and the mGITR-His/BKG [3] was 1 fold over background.

B15: GITR-Mab-27 scFv (scFv, V domains shown)
VH: QVQLVQSGAEVKKPGASVKVSCKASGYTFTSYDINWVRQAPGQGLEWIGWMNTNSGDTGYAQKFQGRVTMTRDTSTSTVYMELSSLRSEDTAVYYCARQAYSSSWYWYGWFDPWGQGTLVTVSS
VL: DIQMTQSPSSLSASVGDRVTITCQASHDIDNYLNWYQQKPGKAPKLLIYAASNLQSGVPSRFSGSGSGTDFTLTISSLQPEDFATYYCQQANSFPLTFGPGTKVDIK
notes: as for B1
With B15 the hGITR-His/BKG [1] was 24.6 fold over background, the cGITR-His/BKG [2] was 1 fold over background and the mGITR-His/BKG [3] was 1.3 fold over background.

B16: GITR-Mab-35 scFv (scFv, V domains shown)
VH: QVQLVQSGAEVKKPGASVKVSCKASGYTFTNYYMHWVRQAPGQGLEWMGLITPSGGRTKYAQKFQGRVTMTRDTSTSTVYMELSSLRSEDTAVYYCAREMEYSSSWYWFDPWGQGTLVTVSS
VL: B6 VL with R24Q, D28G, R30S, N31S, A34N, T50A, T91S, F92Y, R93S
notes: as for B1
Binder B16 has a hGITR-His/BKG [1] of 25.3 fold over background, a cGITR-His/BKG [2] of 0.9 fold over background and a mGITR-His/BKG [3] of 0.9 fold over background.
